Results taken from patent US20220064329A1 (Novo Nordisk, published 2022).
Numbering of substitutions follows the chain as printed.

Key:
Test in all cases: SPR, ratio of KD to KD of WT
[1] = biological target: T1, FVII(a) variant N184A (human, UniProt P08709 61-466)
T1 construct: hFVII alanine variant in cell culture supernatant
T1 sequence: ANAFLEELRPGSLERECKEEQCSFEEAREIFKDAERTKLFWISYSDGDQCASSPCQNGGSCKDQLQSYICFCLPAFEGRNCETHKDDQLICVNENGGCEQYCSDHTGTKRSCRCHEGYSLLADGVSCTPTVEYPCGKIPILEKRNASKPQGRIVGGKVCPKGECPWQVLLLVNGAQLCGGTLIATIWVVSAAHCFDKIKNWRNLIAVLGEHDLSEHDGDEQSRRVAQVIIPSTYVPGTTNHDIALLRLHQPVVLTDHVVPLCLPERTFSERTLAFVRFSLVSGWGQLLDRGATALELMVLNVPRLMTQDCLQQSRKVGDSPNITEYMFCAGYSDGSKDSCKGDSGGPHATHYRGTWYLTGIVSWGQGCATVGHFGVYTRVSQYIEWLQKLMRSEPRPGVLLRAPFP
Description: (§1) The running buffer was prepared by diluting 10-fold the 10×HBS-P buffer (supplied by GE Healthcare) and supplemented with 1 mg/ml BSA and 5 mM CaCl2 to give 10 mM HEPES, 150 mM NaCl, 0.05% v/v Polysorbate 20, pH 7.4, 5 mM CaCl2, 1 mg/ml bovine serum albumin (BSA). […] Regeneration of the chip was achieved using 10 mM HEPES, 150 mM NaCl, 20 mM EDTA, 0.05 v/v Polysorbate 20, pH 7.4. Binding data were analysed according to a 1:1 Kinetic model and steady state analysis using BiaEvaluation 4.1 supplied by the manufacturer (Biacore AB, Uppsala, Sweden). Wherever possible, ka, kd and KD values from 1:1 kinetic fitting model are reported. […] An amino acid residue is considered a hot-spot residue if substitution of that amino acid residue with alanine results in an affinity reduction of ten (10) fold or more relative to the wild type.

[2] = biological target: T2, FVII(a) variant I186A (human, UniProt P08709 61-466)
T2 construct: hFVII alanine variant in cell culture supernatant
T2 sequence: T1 sequence with A184N, I186A
Description: as §1

[3] = biological target: T3, FVII(a) variant E116A (human, UniProt P08709 61-466)
T3 construct: hFVII alanine variant in cell culture supernatant
T3 sequence: T1 sequence with E116A, A184N
Description: as §1

[4] = biological target: T4, FVII(a) variant Y118A (human, UniProt P08709 61-466)
T4 construct: hFVII alanine variant in cell culture supernatant
T4 sequence: T1 sequence with Y118A, A184N
Description: as §1

[5] = biological target: T5, FVII(a) variant L120A (human, UniProt P08709 61-466)
T5 construct: hFVII alanine variant in cell culture supernatant
T5 sequence: T1 sequence with L120A, A184N
Description: as §1

B1: mAb0842(OA) (antibody, human IgG4 S228P, kappa)
heavy: QVQLQESGPGLVKPSQTLSLTCTVSGYSISSDSAWSWIRQPPGKGLEWIGYIQYSGSTNYNPSLKSRVTISRDTSKNQFSLKLSSVTAADTAVYYCARSVNYYGNSFAVGYWGQGTLVTVSSASTKGPSVFPLAPCSRSTSESTAALGCLVKDYFPEPVTVSWNSGALTSGVHTFPAVLQSSGLYSLSSVVTVPSSSLGTKTYTCNVDHKPSNTKVDKRVESKYGPPCPPCPAPEFLGGPSVFLFPPKPKDTLMISRTPEVTCVVVDVSQEDPEVQFNWYVDGVEVHNAKTKPREEQFNSTYRVVSVLTVLHQDWLNGKEYKCKVSNKGLPSSIEKTISKAKGQPREPQVYTLPPSQEEMTKNQVSLSCAVKGFYPSDIAVEWESNGQPENNYKTTPPVLDSDGSFFLVSRLTVDKSRWQEGNVFSCSVMHEALHNHYTQKSLSLSLGK
light: EIVLTQSPATLSLSPGERATLSCRASQGISDYLHWYQQKPGEAPRLLIKYTSQPATGIPARFSGSGSGTDFTLTISSLEPEDFAVYYCQNGHSFPLTFGQGTKLEIKRTVAAPSVFIFPPSDEQLKSGTASVVCLLNNFYPREAKVQWKVDNALQSGNSQESVTEQDSKDSTYSLSSTLTLSKADYEKHKVYACEVTHQGLSSPVTKSFNRGEC
chain: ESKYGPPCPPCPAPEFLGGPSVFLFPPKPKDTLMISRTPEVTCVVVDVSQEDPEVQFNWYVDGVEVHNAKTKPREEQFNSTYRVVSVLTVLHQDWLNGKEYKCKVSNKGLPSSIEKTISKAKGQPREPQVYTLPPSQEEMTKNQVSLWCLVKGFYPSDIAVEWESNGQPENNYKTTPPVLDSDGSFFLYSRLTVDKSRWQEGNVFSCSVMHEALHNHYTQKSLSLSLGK
notes: also called monovalent humanized 11F2 antibody; one-armed anti-FVII(a) antibody
[1]
  Fold diff (Variant/WT): 6.3 fold
[2]
  Fold diff (Variant/WT): 1.3 fold
[3]
  Fold diff (Variant/WT): 1.6 fold
[4]
  Fold diff (Variant/WT): 4.9 fold
[5]
  Fold diff (Variant/WT): 2 fold
